Sequences and labels used below:
B1: Biotinylated IL-34 (ligand, human, UniProt Q6ZMJ4 19-242, looked up)
chain: LGNEPLEMWPLTQNEECTVTGFLRDKLQYRSRLQYMKHYFPINYKISVPYEGVFRIANVTRLQRAQVSERELRYLWVLVSLSATESVQDVLLEGHPSWKYLQEVETLLLNVQQGLTDVEVSPKVESVLSLLNAPGPNLKLVRPKALLDNCFRVMELLYCSCCKQSSVLNWQDCEVPSPQSCSPEPSLQYAATQLYPPPPWSPSSPPHSTGSVRPVRAQGEGLLP
modifications: biotin (biotinylated, site not stated)

Holding throughout (assay): ELISA
Test [1] deals with Recombinant human CSF-1R-Fc (329-MR-100) (human, UniProt P07333 20-517).
Recombinant human CSF-1R-Fc (329-MR-100), sequence (P07333 20-517): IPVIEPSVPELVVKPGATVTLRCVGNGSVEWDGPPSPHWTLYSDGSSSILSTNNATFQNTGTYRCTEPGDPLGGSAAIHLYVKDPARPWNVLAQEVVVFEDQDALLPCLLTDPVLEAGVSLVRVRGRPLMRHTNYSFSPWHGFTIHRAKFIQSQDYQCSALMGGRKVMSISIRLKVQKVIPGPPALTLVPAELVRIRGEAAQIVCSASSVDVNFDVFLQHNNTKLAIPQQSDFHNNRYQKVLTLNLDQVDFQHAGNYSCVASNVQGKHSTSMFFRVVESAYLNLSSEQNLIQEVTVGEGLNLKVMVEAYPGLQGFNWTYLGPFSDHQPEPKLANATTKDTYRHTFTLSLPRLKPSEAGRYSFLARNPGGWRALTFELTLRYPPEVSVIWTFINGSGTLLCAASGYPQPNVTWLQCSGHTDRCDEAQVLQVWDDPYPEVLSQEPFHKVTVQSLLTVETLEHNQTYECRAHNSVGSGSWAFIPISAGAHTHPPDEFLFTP
For test [2], the target named is T1, Recombinant Syndecan-1 (2780-SD) (human, UniProt P18827 23-254).
T1 sequence (looked up): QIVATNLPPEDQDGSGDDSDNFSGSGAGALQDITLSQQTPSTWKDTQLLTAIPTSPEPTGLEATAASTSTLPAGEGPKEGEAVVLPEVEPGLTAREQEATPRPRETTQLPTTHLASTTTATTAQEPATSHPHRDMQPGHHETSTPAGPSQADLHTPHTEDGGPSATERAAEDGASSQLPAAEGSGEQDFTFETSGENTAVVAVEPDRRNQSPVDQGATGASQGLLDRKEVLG

For the test “Biotinylated IL-34”, the target named is B1.

B1: the binding result in test [1] and in test [2] was “binds” each time.

B2: Recombinant human TREM2 (9256-T2-50) (receptor, UniProt Q9NZC2 19-174, looked up)
chain: HNTTVFQGVAGQSLQVSCPYDSMKHWGRRKAWCRQLGEKGPCQRVVSTHNLWLLSFLRRWNGSTAITDDTLGGTLTITLRNLQPHDAGLYQCQSLHGSEADTLRKVLVEVLADPLDHRDAGDLWFPGESESFEDAHVEHSISRSLLEGEIPFPPTS
Regarding B2, the binding result in the test with Biotinylated IL-34 is given as “binds”.

The record behind these values is paper PMC11927444 (Journal for Immunotherapy of Cancer, 2025).
